The values that follow come from patent US6887844 (dated 2005).

Data set [1] addresses NCAM on cells (primary hippocampal neurones; NCAM-140 on transfected fibroblasts) (rat) (UniProt P13596). The data set is described as follows: cell-based or functional assay.
Data set [2] concerns the target NCAM Ig2 domain, recombinant, produced in Pichia pastoris (rat) (UniProt P13596). Nature of the data set: NMR titration, 14 points, 15N-labelled domain-2 (1.0 mM) titrated with unlabelled domain-1, chemical shifts of 10 residues fitted.
Data set [3] concerns the molecule itself. Nature of the data set: gel filtration chromatography, self-association. On the technique in general: SEC sorts molecules by how far they enter the pores of the column.

Usually Kd stands for the free concentration of one partner at which half of the binding sites on the other are occupied at equilibrium, for simple one-to-one binding.

“NCAM Ig2 domain, recombinant, produced in Pichia pastoris (from UniProt P13596 117-208) (ligand)” gave a concentration of maximal neuritogenic effect, primary hippocampal neurones on fibronectin in data set [1] of 0.54 µM.

Take “NCAM Ig1 domain, recombinant, produced in Pichia pastoris (Ig1 PP) (from UniProt P13596 20-116) (receptor)”: in data set [2], the Kd stood at 2500 µM.

B1: NCAM (20-208) with three mutations in the domain-1 E30A, E35A, K37A (receptor, UniProt P13596 20-208, looked up)
chain: LQVDIVPSQGAISVGASAFFLCQVAGDAKDKDISWFSPNGEKLSPNQQRISVVWNDDDSSTLTIYNANIDDAGIYKCVVTAEDGTQSEATVNVKIFQKLMFKNAPTPQEFKEGEDAVIVCDVVSSLPPTIIWKHKGRDVILKKDVRFIVLSNNYLQIRGIKKTDEGTYRCEGRILARGEINFKDIQVIV
notes: Species as for m28; also called first mutant
Regarding B1, in data set [3], the binding result is “no binding”.

B2: NCAM (20-208) with three mutations in the domain-2 R192A, R196A, E198A (receptor, UniProt P13596 20-208, looked up)
chain: LQVDIVPSQGEISVGESKFFLCQVAGDAKDKDISWFSPNGEKLSPNQQRISVVWNDDDSSTLTIYNANIDDAGIYKCVVTAEDGTQSEATVNVKIFQKLMFKNAPTPQEFKEGEDAVIVCDVVSSLPPTIIWKHKGRDVILKKDVRFIVLSNNYLQIRGIKKTDEGTYRCEGAILAAGAINFKDIQVIV
notes: Species as for m28; also called second mutant; mutated double domain
Turning to B2, the binding result in data set [3] was “no binding”.

B3: NCAM (20-208) with three mutations in the domain-1 E30A, E35A, K37A and three mutations in the domain-2 R192A, R196A, E198A (receptor, UniProt P13596 20-208, looked up)
chain: LQVDIVPSQGAISVGASAFFLCQVAGDAKDKDISWFSPNGEKLSPNQQRISVVWNDDDSSTLTIYNANIDDAGIYKCVVTAEDGTQSEATVNVKIFQKLMFKNAPTPQEFKEGEDAVIVCDVVSSLPPTIIWKHKGRDVILKKDVRFIVLSNNYLQIRGIKKTDEGTYRCEGAILAAGAINFKDIQVIV
notes: Species as for m28; also called third mutant
Consider B3, for which, in data set [3], the binding result is listed as “no binding”.
